In patent US20230321261A1, “AXL-SPECIFIC ANTIBODY-DRUG CONJUGATES FOR CANCER TREATMENT” (GENMAB A/S, priority 2016, published 2023):
Numbering of substitutions follows the chain as printed. In names and notes the source's numbering stands.

B1: IgG1-AXL-511: AXL-specific human IgG1,κ antibody, VH SEQ ID NO:136, VL SEQ ID NO:140, Ig2 domain binding (antibody, listed as Homo sapiens, V domains shown)
VH: EVQLLESGGGLVQPGGSLRLSCAASGFTFSSYAMNWVRQAPGKGLEWVSGISGSGGHTYHADSVKGRFTISRDNSKNTLYLQMNSLRAEDTAVYYCAKDRYDILTGYYNLLDYWGQGTLVTVSS
VL: DIQMTQSPSSLSASVGDRVTITCRASQGISSWLAWYQQKPEEAPKSLIYAASSLQSGVPSRFSGSGSGTDFTLTISSLQPEDFATYYCQQYNSYPLTFGGGAKVEIK
B2: IgG1-AXL-140: AXL-specific human IgG1,κ antibody, VH SEQ ID NO:3, VL SEQ ID NO:4 (antibody, listed as Homo sapiens, V domains shown)
VH: EVQLLESGGGLVQPGGSLRLSCAASGFTFSSYAMTWVRQAPGKGLEWVSAISISGASTFYADSVKGRFTISRDNSKNTLSLQMNSLRAEDTAVYFCRGYSGYVYDAFDIWGQGTMVTVSS
VL: B1 VL with S31N, E42K, A102T
B3: IgG1-AXL-726-vcMMAE (conjugate)
VH: QVQLQQWGAGLLKPSETLSLTCAIDGGSFSGYYWSWIRQPPGKGLEWIGEISHSGRTNYNPSLKSRVTISIDTSKNQFSLKLSSVAAADTAVYYCARFITMIRGAIITHFDYWGQGALVTVSS
VL: B1 VL with E42K, N92H, L96Y, G100Q, A102T, V104L
B4: IgG1-AXL-187: AXL-specific human IgG1,κ antibody, VH SEQ ID NO:19, VL SEQ ID NO:20 (antibody, listed as Homo sapiens, V domains shown)
VH: B3 VH with Q3P, I24V, D25Y, Y33H, A86T, R97S, A105T, A117T
VL: B1 VL with E42K, N92H, L96Y, G100Q, A102T, V104L
B5: IgG1-AXL-733: AXL-specific human IgG1,κ antibody, VH SEQ ID NO:34, VL SEQ ID NO:35, FN1 domain binding (antibody, listed as Homo sapiens, V domains shown)
VH: QVQLVESGGGVVQPGRSLRLSCAASGFSFSTYAMHWVRQAPGKGLEWVAVISYDGDNKYSADSVKGRFTISRDNSKNTLYLQMNSLRAEDTAVYYCARGRKLGIDAFDIWGQGTMVTVSS
VL: AIQLTQSPSSLSASVGDRVTITCRASQGISSALAWYQQKPGKAPKLLIYDASSLESGVPSRFSGSGSGTDFTLTISGLQPEDFATYYCQQFNSYPFTFGPGTKVDIK
B6: IgG1-AXL-183: AXL-specific human IgG1,κ antibody, VH SEQ ID NO:16, VL SEQ ID NO:18, FN1 domain binding (antibody, listed as Homo sapiens, V domains shown)
VH: QVQLQQWGAGLLKPSETLSLTCAVYGGSFSGYYWSWIRQPPGKGLEWIGEINQSGSTNYNPSLKSRVTISVDTSKNQFSLKLSSVTAADTSVYYCASGNWDHFFDYWGQGTLVTVSS
VL: DIQMTQSPSSVSASVGDRVTITCRASQGISSWLAWYQHKPGKAPKLLIYATSSLQSGVTSRFSGSGSGTDFTLTISSLQPEDFATYYCQQAKSFPWTFGQGTKVEIK
B7: IgG1-AXL-183-vcMMAE (conjugate)
VH: B6 VH
VL: B6 VL
B8: IgG1-AXL-183-N52Q: point mutant of IgG1-AXL-183, VH SEQ ID NO:17, VL SEQ ID NO:18 (antibody, listed as Homo sapiens, V domains shown)
VH: B6 VH with N52Q
VL: B6 VL

Key:
[1] = target: T1, AXLECDHis (extracellular domain of human AXL) (Homo sapiens, UniProt P30530); assay: Binding affinity by Bio-Layer Interferometry (ForteBio OctetRED384); conditions: 1:1 model, 30° C.
T1 construct: the extracellular domain (ECD) of human AXL (aa 1-447) with a C-terminal His tag (AXLECDHis); His tag (C); made in house; host or cells: HEK-293F

AXL on A431 cells = target: T2, AXL on A431 cells (Homo sapiens, UniProt P30530); assay: Antibody binding to A431 cells with or without Gas6 pre-incubation; conditions: for Antibody binding to A431 cells: EC50 in presence of Gas6 (µg/mL) mean (s.d.) / Antibody binding to A431 cells: Maximal binding in presence of Gas6 (% of binding in absence of Gas6) mean (s.d.): pre-incubation with 10 µg/mL Gas6; for Antibody binding to A431 cells: EC50 w/o Gas6 (µg/mL) mean (s.d.): without Gas6 pre-incubation
T2 construct: AXL-positive A431 cells were incubated; endogenous in cells; host or cells: A431

[2] = target: T3, Gas6 binding to AXL on A431 cells (Homo sapiens, UniProt P30530); assay: Gas6 binding to A431 cells pre-incubated with AXL antibodies; conditions: pre-incubation with 10 µg/mL antibody; control antibody b12
T3 construct: endogenous in cells; host or cells: A431
Protocol: Alternatively, A431 cells were pre-incubated with 10 µg/mL AXL antibodies (15 minutes, 4° C.) to assess if the AXL ligand Gas6 could still bind in presence of AXL antibodies. […] After washing three times in PBS/0.1% BSA/0.02% azide, cells were incubated with mouse anti-Gas6 IgG2a (R&D Systems; cat no. MAB885) at 4° C. for 30 min. After washing three times in PBS/0.1% BSA/0.02% azide, cells were incubated with FITC-labelled goat anti-mouse IgG (Dako, Heverlee, Belgium; cat no. F049702) at 4° C. for 30 min in the dark. Next, cells were washed twice in PBS/0.1% BSA/0.02% azide, resuspended in 120 µL PBS/0.1% BSA/0.02% azide and analyzed on a FACS Cantoll (BD Biosciences).
(§1) Binding curves were analyzed using non-linear regression (sigmoidal dose-response with variable slope) using GraphPad Prism V5.04 software (GraphPad Software, San Diego, CA, USA).
Therefore, binding of Gas6 to A431 cells that had been pre-incubated with 10 µg/mL AXL antibodies was tested as described in Example 2.

[3] = target: T4, human AXL transiently expressed by HEK-293F cells (Homo sapiens, UniProt P30530); assay: Homogeneous antigen specific screening assay (FMAT); format: binding
T4 construct: TH1021-AXL (HEK-293F cells transiently expressing full length human AXL; produced as described above); expressed in transfected cells; host or cells: HEK-293F

[4] = tested on: LCLC-103H xenograft tumors; assay: LCLC-103H xenograft model; format: in vivo, SCID mice; conditions: 3 mg/kg (Example 13, FIG. 14A)
Protocol: 5 × 10^6 LCLC-103H (large cell lung carcinoma) tumor cells (obtained from Leibniz-Institut DSMZ-Deutsche Sammlung von Mikroorganismen und Zellkulturen GmbH (DSMZ)) in 200 µL PBS were injected subcutaneously in the right flank of female SCID mice. Starting 14-21 days after tumor cell inoculation, when the average tumor size was >100-200 mm^3 and distinct tumor growth was observed, a single injection with 1 mg/kg (20 µg/mouse) IgG1-AXL-vcMMAE antibodies (as described in Supplementary Example 1) or control (unconjugated IgG1-b12) was given intraperitoneally (100 µL/mouse). Tumor volume was determined at least two times per week. Tumor volumes (mm^3) were calculated from caliper (PLEXX) measurements as: 0.52 × (length) × (width)^2.
(§2) Tumor induction was performed by subcutaneous injection of 5 × 10^6 A431 or LCLC-103H tumor cells (both obtained from Leibniz-Institut - Deutsche Sammlung von Mikroorganismen und Zellkulturen GmbH (DSMZ)) in 200 µL PBS in the right flank of female SCID mice. Treatment was started 14-21 days after tumor cell inoculation, when the average tumor size was >100-200 mm^3 and distinct tumor growth was observed. Mice received a single injection or a total of 4 biweekly intraperitoneal injections with IgG1-AXL-vcMMAE ADCs or control antibody (unconjugated IgG1-b12), as indicated. Tumor volume was determined at least two times per week. Tumor volumes (mm^3) were calculated from caliper (PLEXX) measurements as: 0.52 × (length) × (width)^2.

A431 tumors = assay: A431 xenograft model (high Gas6); format: in vivo, SCID mice; conditions: 3 mg/kg
Protocol: as §2

[5] = target: T5, human-mouse chimeric AXL mutants (Homo sapiens, UniProt P30530, A273L/A287V/A310S/E275K/E281D/G297E/H300L/L233V/M269V/N230H/P276S/P329T/Q227R/Q272W/R229H/S285L/S298K/S319P/T259N/T312S/V309I); assay: AXL domain specificity using human-mouse AXL chimeric molecules (flow cytometry); format: binding; conditions: 1 µg/mL antibody
T5 construct: constructs for expression of various full-length AXL variants were generated; expressed in transfected cells; host or cells: HEK293F

full length human AXL = target: T6, full length human AXL (Homo sapiens, UniProt P30530); assay: Flow cytometry binding to transfected HEK293T cells; conditions: at least 3 experiments
T6 construct: expression constructs for full length human AXL; expressed in transfected cells; host or cells: HEK293T
Protocol: HEK293T cells were transiently transfected with expression constructs for full length human AXL, human AXL with a cynomolgus monkey extracellular domain (ECD) or human AXL with a mouse ECD (see Example 1). Binding of HuMab-AXL antibodies to these cells was evaluated by flow cytometry. Transfected HEK293 cells were incubated with serial dilutions of AXL-antibodies (final concentration range 0.0024-10 µg/mL) for 30 minutes at 4° C. […] Next, cells were washed twice in PBS/0.1% BSA/0.02% azide, resuspended in 120 µL PBS/0.1% BSA/0.02% azide and analyzed on a FACS Cantoll (BD Biosciences).
as §1

[6] = target: T7, human AXL with a cynomolgus monkey extracellular domain (ECD) (Homo sapiens, UniProt P30530, P441T/S191N/S285L/T105A/T112A/T125N/T443A); assay: as above; conditions: at least 3 experiments
T7 construct: aa 1-447); human AXL transmembrane and intracellular part (the remainder of human AXL after the ECD; expressed in transfected cells; host or cells: HEK293T

| Molecule | Binding affinity (OCTET) Kdis [1] [s⁻¹] | Binding affinity (OCTET) Kon [1] [M⁻¹ s⁻¹] | Antibody binding to A431 cells: EC50 in presence of Gas6 (µg/mL) mean (s.d.) (AXL on A431 cells) | Antibody binding to A431 cells: Maximal binding in presence of Gas6 (% of binding in absence of Gas6) mean (s.d.) (AXL on A431 cells) | Antibody binding to A431 cells: EC50 w/o Gas6 (µg/mL) mean (s.d.) (AXL on A431 cells) | Gas6 binding to A431 cells: Maximal binding in presence of AXL antibodies (% of binding in presence of control antibody) mean (s.d.) [2] | Binding EC50 (µg/mL) human AXL Average (s.d.) (full length human AXL) | Binding EC50 (µg/mL) cynomolgus AXL Average (s.d.) [6] | also measured |
| --- | --- | --- | --- | --- | --- | --- | --- | --- | --- |
| B1 | 0.0039 | 170000 | 0.30 (0.31) µg/mL | 93 (15) % | 0.12 (0.11) µg/mL | 113 (6) % |  |  |  |
| B2 |  |  |  |  |  |  |  |  | Maximal binding (Arbitrary units) [3]: 2889 Arbitrary units |
| B3 |  |  |  |  |  |  |  |  | anti-tumor activity in the LCLC-103H xenograft model [4]: tumor regression; anti-tumor activity in the A431 xenograft model (A431 tumors): growth inhibition |
| B4 |  |  |  |  |  |  |  |  | Maximal binding (Arbitrary units) [3]: 2563 Arbitrary units |
| B5 | 0.0097 | 160000 | 0.62 (0.23) µg/mL | 93 (5) % | 0.49 (0.51) µg/mL | 96 (5) % | 0.176 (0.094) µg/mL | 0.254 (0.114) µg/mL | binding to hsAXL-mmFN1 [5]: reduced binding |
| B6 | 0.00042 |  | 1.19 (1.11) µg/mL | 90 (19) % | 0.69 (0.72) µg/mL | 115 (8) % | 0.526 (0.177) µg/mL | 0.309 (0.086) µg/mL | binding to hsAXL-mmFN1 [5]: reduced binding |
| B7 |  |  |  |  |  |  |  |  | anti-tumor activity in the LCLC-103H xenograft model [4]: tumor regression; anti-tumor activity in the A431 xenograft model (A431 tumors): growth inhibition |
| B8 | 0.001 | 42000 |  |  |  |  | 0.350 (0.206) µg/mL | 0.324 (0.121) µg/mL |  |
